This assay addresses T1, MCM2-7 protein complex (Xenopus egg extracts) (Xenopus, UniProt P55861 1-886; P49739 1-807; P30664 1-863; P55862 1-735; Q5FWY4 1-821; Q91876 …).
T1 construct: Endogenous complex of the six proteins MCM2 to MCM7; also called MCM2-7 proteins; MCM2-7 complex
Briefly: co-immunoprecipitation with MCM3 antibody from S phase egg extracts, western blot with MCM8 antibody.

B1: Xenopus MCM8 protein (enzyme)
chain: MSQGWRGGSGGWRGGGGGGGNPYAGAWRGRPWRGRGQGGTWSRNNGRDPVCFAPPKPQLTQTTLDKYIPYKGWKLYFSEAYSDNSPFLEKVRAFEKFFKKQIELYDKDEIERKGSILVDYKELLQDEDLSASIPLSSELKDMPEKVLECMGLAIHQVLTKDLETHAADLQQQEGLRTEEAPIVNVPFIHARVFNYDTLTSLKNLRASLYGKYVALRGTVVRVGNIKPLCTKMAFSCNMCGDIQCFPLPDGKYTVPTKCPVPECRGRSFTANRSSPLTVTVDWQTIKVQELMSDDQREAGRIPRTVECELIQDLVDSCVPGDMITVTGIVKVSNTRDGGFKNKNNKCMFLLYIEANSVSNSKGQKGKSTEDSGNHGASMDFSLKDLYAIQEIQSQENLFQLIVNSLCPTIYGHELVKAGLSLALFGGCQKYADDKNRIPIRGDPHILVVGDPGLGKSQMLQAVCNVAPRGVYVCGNTTTTSGLTVTLSRDTTTGDFGLEAGALVLGDQGICGIDEFDKMGNQHQALLEAMEQQSISLAKAGIVCSLPARTSIIAAANPVGGHYNKGKTVSENLKMGSALLSRFDLVFILVDTPNEDHDHLLSEHVMAMRSGAKEIQSVDITRINTQNSNTSILEVPSERPLGERLKLRTGEHFDALPHQLLRKFVGYARQYVHPSLSPDAAQILQDFYLELRKQNQGIDSTPITTRQLESLIRLTEARARLELREKATKEDAEEVVQIMKYSLLGTFSDEFGKLDFQRSQHGSGMSNRSKAKKFVSALNRVAEQTYNNLFEFQQLRQIARELQIQVIDFEAFIGSLNDQGYLLKKGPRVFQLQTM
notes: Full-length protein: translated in vitro in rabbit reticulocytes, or the endogenous protein of Xenopus egg extracts; also called 90 kDa polypeptide
Regarding B1, the binding result was “no binding”.

(Values after patent US20090208938A1 (CENTRE NATIONAL DE LA RECHERCHE SCIENTIFIQUE, published 2009).)
